This note sets out measurements from US20230103583A1 (NORTHWESTERN UNIVERSITY, published 2023).

In the assay the target is Tie2 receptor on HUVEC (human, UniProt Q02763 23-1124). As to the kind of experiment: cell-based or functional assay.
Tie2 receptor on HUVEC, sequence (Q02763 23-1124): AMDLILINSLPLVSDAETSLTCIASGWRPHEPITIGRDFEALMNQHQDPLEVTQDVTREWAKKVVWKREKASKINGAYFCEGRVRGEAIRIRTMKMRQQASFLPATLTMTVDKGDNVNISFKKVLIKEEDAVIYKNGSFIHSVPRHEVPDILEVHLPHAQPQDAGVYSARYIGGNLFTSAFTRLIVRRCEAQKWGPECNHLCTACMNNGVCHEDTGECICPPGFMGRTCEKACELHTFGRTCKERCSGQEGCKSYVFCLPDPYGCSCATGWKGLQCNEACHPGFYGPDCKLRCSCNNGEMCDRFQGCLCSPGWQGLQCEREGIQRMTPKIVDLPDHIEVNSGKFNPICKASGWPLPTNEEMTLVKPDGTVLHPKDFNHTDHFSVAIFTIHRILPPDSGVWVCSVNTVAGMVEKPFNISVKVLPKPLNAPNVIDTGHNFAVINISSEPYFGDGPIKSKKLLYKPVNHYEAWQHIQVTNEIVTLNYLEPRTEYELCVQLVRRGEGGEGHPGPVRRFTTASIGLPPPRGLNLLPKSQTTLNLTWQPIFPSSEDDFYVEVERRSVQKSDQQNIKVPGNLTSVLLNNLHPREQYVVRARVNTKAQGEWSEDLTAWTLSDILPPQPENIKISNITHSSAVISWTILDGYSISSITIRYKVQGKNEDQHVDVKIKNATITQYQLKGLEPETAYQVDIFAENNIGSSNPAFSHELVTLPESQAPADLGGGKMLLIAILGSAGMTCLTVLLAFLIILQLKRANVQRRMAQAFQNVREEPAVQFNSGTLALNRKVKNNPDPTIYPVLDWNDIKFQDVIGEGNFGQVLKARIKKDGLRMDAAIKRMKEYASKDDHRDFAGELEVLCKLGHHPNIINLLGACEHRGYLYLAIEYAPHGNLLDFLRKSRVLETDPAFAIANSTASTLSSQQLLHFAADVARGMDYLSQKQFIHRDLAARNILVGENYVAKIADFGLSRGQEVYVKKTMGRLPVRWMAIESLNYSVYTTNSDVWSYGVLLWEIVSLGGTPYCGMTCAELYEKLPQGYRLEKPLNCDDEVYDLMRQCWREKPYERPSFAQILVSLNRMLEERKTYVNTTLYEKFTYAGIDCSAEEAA

B1: ANG1-C4BP (ligand)
chain: KPFRDCADVYQAGFNKSGIYTIYINNMPEPKKVFCNMDVNGGGWTVIQHREDGSLDFQRGWKEYKMGFGNPSGEYWLGNEFIFAITSQRQYMLRIELMDWEGNRAYSQYDRFHIGNEKQNYRLYLKGHTGTAGKQSSLILHGADFSTKDADNDNCMCKCALMLTGGWWFDACGPSNLNGMFYTAGQNHGKLNGIKWHYFKGPSYSLRSTTMMIRPLDFGGGGSETPEGCEQVLTGKRLMQCLPNPEDVKMALEVYKLSLEIEQLELQRDSARQSTLDKELHHHHHH
As for B1, the “phospho-AKT (pAKT) EC50 in HUVEC treated for 20 minutes” value is 87 ng/mL.
